How the values were obtained:
[1] = molecular target: β2-glycoprotein I (human) (UniProt P02749); experiment: optical biosensor
[2] = molecular target: Glu-plasminogen (Homo sapiens) (UniProt P00747); settings: cited from earlier work
Sequence of Glu-plasminogen (Homo sapiens) (P00747 20-810): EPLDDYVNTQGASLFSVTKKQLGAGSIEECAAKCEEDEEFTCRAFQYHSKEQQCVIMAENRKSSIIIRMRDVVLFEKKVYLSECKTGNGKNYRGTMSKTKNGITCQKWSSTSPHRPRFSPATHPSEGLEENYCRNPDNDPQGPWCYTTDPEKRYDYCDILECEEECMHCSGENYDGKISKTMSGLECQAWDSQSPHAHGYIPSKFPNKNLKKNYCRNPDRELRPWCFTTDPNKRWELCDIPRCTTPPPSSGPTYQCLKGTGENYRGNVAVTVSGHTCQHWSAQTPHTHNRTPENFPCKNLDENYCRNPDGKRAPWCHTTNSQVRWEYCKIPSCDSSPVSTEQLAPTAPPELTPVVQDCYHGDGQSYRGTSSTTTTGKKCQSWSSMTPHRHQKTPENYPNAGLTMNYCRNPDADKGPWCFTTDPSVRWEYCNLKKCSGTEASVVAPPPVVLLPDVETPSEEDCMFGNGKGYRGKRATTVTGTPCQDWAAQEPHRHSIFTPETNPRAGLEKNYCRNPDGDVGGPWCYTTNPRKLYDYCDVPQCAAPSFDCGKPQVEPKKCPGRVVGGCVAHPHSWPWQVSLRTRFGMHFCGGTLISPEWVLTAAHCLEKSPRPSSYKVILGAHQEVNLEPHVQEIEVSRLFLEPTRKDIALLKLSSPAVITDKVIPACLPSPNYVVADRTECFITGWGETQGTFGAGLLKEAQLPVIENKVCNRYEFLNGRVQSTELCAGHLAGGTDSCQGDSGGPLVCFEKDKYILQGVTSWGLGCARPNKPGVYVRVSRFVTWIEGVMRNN

Sequence of β2-glycoprotein I (human) (P02749 20-345): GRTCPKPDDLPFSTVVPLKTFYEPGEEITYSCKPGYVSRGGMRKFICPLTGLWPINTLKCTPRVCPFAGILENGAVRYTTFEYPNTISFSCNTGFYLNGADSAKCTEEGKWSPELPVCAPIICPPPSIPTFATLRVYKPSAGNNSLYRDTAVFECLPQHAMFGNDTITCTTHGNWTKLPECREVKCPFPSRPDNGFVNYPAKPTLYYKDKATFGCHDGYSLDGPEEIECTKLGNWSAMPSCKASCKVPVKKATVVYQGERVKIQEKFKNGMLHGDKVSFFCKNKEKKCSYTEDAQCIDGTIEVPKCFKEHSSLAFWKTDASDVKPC
Sequence of β2-glycoprotein I (nicked) (P02749 20-345): as above

Row | koff [1] [s⁻¹] | kon [1] [M⁻¹ s⁻¹] | Substance | Kd [2] [nM]
1 | 0.00619 | 113000 | tissue-type plasminogen activator (enzyme) | 
2 |  |  | β2-glycoprotein I (nicked) (from UniProt P02749) | 370
